Legend:
Test in all cases: co-IP
[1] = biological target: LANADBD YR879AA (Kaposi's sarcoma-associated herpesvirus (KSHV; human herpesvirus 8))
[2] = biological target: LANADBD KDT950AAA (Kaposi's sarcoma-associated herpesvirus (KSHV; human herpesvirus 8))
[3] = biological target: LANADBD HIF876AAA (Kaposi's sarcoma-associated herpesvirus (KSHV; human herpesvirus 8))
[4] = biological target: LANADBD LSQ912AAA (Kaposi's sarcoma-associated herpesvirus (KSHV; human herpesvirus 8))
[5] = biological target: LANADBD YGL907AAA (Kaposi's sarcoma-associated herpesvirus (KSHV; human herpesvirus 8))
[6] = biological target: LANADBD R873A (Kaposi's sarcoma-associated herpesvirus (KSHV; human herpesvirus 8))
[7] = biological target: LANADBD SKK953AAA (Kaposi's sarcoma-associated herpesvirus (KSHV; human herpesvirus 8))
[8] = biological target: LANADBD K871A (Kaposi's sarcoma-associated herpesvirus (KSHV; human herpesvirus 8))
[9] = biological target: LANADBD WE963AA (Kaposi's sarcoma-associated herpesvirus (KSHV; human herpesvirus 8))

## wild-type KSHV LANA DNA-binding domain (LANADBD, aa 775-1003) (domain or fragment)
[1]
  dimerization activity by IP, percent of wt: 73 % of wt
[2]
  dimerization activity by IP, percent of wt: 74 % of wt
[3]
  dimerization activity by IP, percent of wt: 127 % of wt
[4]
  dimerization activity by IP, percent of wt: 248 % of wt
[5]
  dimerization activity by IP, percent of wt: 73 % of wt
[6]
  dimerization activity by IP, percent of wt: 135 % of wt
[7]
  dimerization activity by IP, percent of wt: 64 % of wt
[8]
  dimerization activity by IP, percent of wt: 74 % of wt
[9]
  dimerization activity by IP, percent of wt: 29 % of wt
